Molecular target: T1, FtsZ(D212N) (UniProt P0A9A6 1-383, D212N)
T1 construct: FtsZ, tubulin-like cell division protein, GTPase-defective derivative D212N; Polymerised with 5 mM GTP in the assay; also called FtsZ(D212N) polymers; FtsZ(D212N) protofilaments
T1 sequence (looked up): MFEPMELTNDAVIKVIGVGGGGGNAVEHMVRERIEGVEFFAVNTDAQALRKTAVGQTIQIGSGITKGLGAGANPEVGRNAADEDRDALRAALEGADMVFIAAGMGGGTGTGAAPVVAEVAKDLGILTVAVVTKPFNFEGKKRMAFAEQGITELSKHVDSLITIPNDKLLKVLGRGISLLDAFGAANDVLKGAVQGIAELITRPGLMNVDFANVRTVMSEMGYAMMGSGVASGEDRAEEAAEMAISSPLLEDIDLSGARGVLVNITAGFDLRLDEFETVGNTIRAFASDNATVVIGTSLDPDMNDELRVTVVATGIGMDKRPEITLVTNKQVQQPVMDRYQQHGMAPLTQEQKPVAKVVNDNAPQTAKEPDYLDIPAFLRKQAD
Assay: co-sedimentation; FtsZ(D212N) 5 µM with GTP 5 mM, SBS17 DNA 2.5 µM and SlmA derivative 5 µM, room temperature 15 min; 80,000 rpm, TLA100.2 rotor, 15 min; supernatant and pellet on SDS-PAGE, Coomassie
Settings: both partners purified

binding result: binds
B1: SlmA(WT) (natural protein, Escherichia coli, UniProt P0C093 1-198, looked up)
chain: MAEKQTAKRNRREEILQSLALMLESSDGSQRITTAKLAASVGVSEAALYRHFPSKTRMFDSLIEFIEDSLITRINLILKDEKDTTARLRLIVLLLLGFGERNPGLTRILTGHALMFEQDRLQGRINQLFERIEAQLRQVLREKRMREGEGYTTDETLLASQILAFCEGMLSRFVRSEFKYRPTDDFDARWPLIAAQLQ
notes: SlmA, nucleoid occlusion factor, TetR-like protein of Escherichia coli; Stood in the assay with SBS17 DNA (SlmA-SBS complex); Serves also as the parent for mutation effects seen with the BACTH fusions; also called wild-type SlmA
